Data: article doi:10.1101/2025.08.16.670655, “A Phosphorelay Circuit Drives Extracellular Alkalinization in Plant Receptor Kinase Signaling” (bioRxiv, 2025)

Biological target: T1, His-BIK1 (Arabidopsis thaliana, UniProt O48814 1-395)
T1 construct: BIK1, Arabidopsis; CDS cloned into pET28a, 6xHis fusion; source: E. coli BL21 (DE3) Rosetta pLysS, purified (HisPur cobalt resin); not shown: His6, N-terminal, kept
T1 sequence (looked up): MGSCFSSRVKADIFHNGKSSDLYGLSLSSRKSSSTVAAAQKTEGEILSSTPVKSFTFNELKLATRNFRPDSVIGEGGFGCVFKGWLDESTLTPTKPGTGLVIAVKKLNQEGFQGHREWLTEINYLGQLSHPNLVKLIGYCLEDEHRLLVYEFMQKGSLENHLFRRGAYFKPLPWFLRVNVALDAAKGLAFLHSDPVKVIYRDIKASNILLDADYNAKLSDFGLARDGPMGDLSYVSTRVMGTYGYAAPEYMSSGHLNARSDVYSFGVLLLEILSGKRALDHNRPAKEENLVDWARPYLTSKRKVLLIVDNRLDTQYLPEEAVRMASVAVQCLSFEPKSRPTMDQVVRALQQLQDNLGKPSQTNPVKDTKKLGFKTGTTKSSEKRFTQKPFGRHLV
Experiment: pull-down; MBP pulldown of His-BIK1 by His-MBP fusion proteins; 25 mM Tris-HCl pH 7.4, 100 mM NaCl, 0.2 % Triton X-100, 1 mM DTT, 4 °C, 1-2 h
Details: both partners purified

B1: His-MBP-GRF2 (natural protein, Arabidopsis thaliana, UniProt Q01525 1-259, looked up)
chain: MASGREEFVYMAKLAEQAERYEEMVEFMEKVSAAVDGDELTVEERNLLSVAYKNVIGARRASWRIISSIEQKEESRGNDDHVTAIREYRSKIETELSGICDGILKLLDSRLIPAAASGDSKVFYLKMKGDYHRYLAEFKTGQERKDAAEHTLAAYKSAQDIANAELAPTHPIRLGLALNFSVFYYEILNSPDRACNLAKQAFDEAIAELDTLGEESYKDSTLIMQLLRDNLTLWTSDMQDDAADEIKEAAAPKPTEEQQ
notes: GRF2, Arabidopsis; CDS cloned into pOPINM, 6xHis-MBP fusion; source: E. coli BL21 (DE3) Rosetta pLysS, purified (HisPur cobalt resin); not shown: His6, N-terminal, kept; MBP, N-terminal, kept
B1: binds.
